Tests used:
[1] = test system: Neuro2a cells stably transfected with hyg-sa134 (SEAP-APP); test: Aβ production by Neuro2a cells stably transfected with hyg-sa134 (total Aβ in media, sandwich ELISA); assay type: cell-based, mouse; details: 5 h; about 400 ng/ml leptin alone or 10 μM water-soluble cholesterol alone; FIG. 4b
astrocytes = test: Filipin staining of astrocytes; assay type: cell-based, rat; details: about 5 h
Procedure: (§1) Leptin was detected using a rabbit polyclonal antibody raised against mouse leptin, corss-reacting with human leptin (obtained from Dr. A. F. Parlow, Harbor-UCLA, CA). Immunofluorescent confocal microscopy was performed on 2% paraformaldehyde-fixed primary neural cells. Filipin staining was performed as described (Feng et al., Nat Cell Biol. 5:781-92 (2003)).
(§2) Neural cultures from ε15 rat cerebral cortex were processed for enrichment of neurons (a-d) or astrocytes (e-h) as described (Takeshima et al., J. Neurosci. Methods 67: 27-41 (1996)). After about 7 days to about 10 days in culture, cultures were treated for about 5 h with about 10 μg/ml cholesterol (b, f) or about 400 ng/ml leptin plus cholesterol (c, g) or leptin alone (d, h). Controls (a, e) were treated with culture media alone. Filipin staining was performed as described (Feng et al., Nat. Cell Biol. 5: 781-92 (2003)). Neurons (i-k) and astrocytes (l-n) prepared as above were treated with 0 μM (i, l), 5 μM (j, m) or 10 μM cholesterol (k, n) for 5 h. Immunostaining was performed for leptin (A.F.Parlow, Harbor-UCLA, CA).

primary neurons = test: Filipin staining of primary neurons; assay type: cell-based, rat; details: about 5 h
Procedure: as §1, §2

SY5Y cells = test: Aβ production by SY5Y cells; assay type: cell-based, human; details: total Aβ in conditioned media, 5 h; concentration (TOFA 200 μM, cerulenin 200 μM, etomoxir 40 μM, peptide YY (3-36) 25 μM, CNTF 25 μM, leptin 400 ng/ml); mean ± SEM; NS = non-significant
Excerpt: Cell cultures, Treatments, Antibodies and Immunoassays. SY5Y cells (human neuroblastoma) were maintained in culture as described (Johnsingh et al., FEBS Lett. 465:53-8 (2000)). Primary neural cultures were obtained from ε16 rat embryonic cortex, as described (Shimoda et al., 1992. Brain Res. 586:319-31 (1992)). These were either grown as mixed cultures (Johnsingh et al., FEBS Lett. 465:53-8 (2000)) or grown under conditions that favor the isolation and proliferation of astrocytes (Takeshima et al., J Neurosci. 14:4769-79 (1994)).
SY5Y and hyg-sa134-Neuro2a cells were treated at 80% confluency (see below). Primary neural cultures from mouse embryos were allowed to grow for 6-12 days following plating and prior to viral infection and treatments.
About 100 ng/ml or about 400 ng/ml leptin (Harbor-UCLA, CA), was added in cell culture medium for 2 or 5 h. Cells were approximately 80% confluent at the time of treatment. Peptide YY (3-36) (Phoenix Pharmaceuticals, Inc., CA), and CNTF (Sigma-Aldrich, Mo.) were added at about 25 μM or 150 μM for the same incubation periods. TOFA, etomoxir (Research Biochemicals International, MA) and cerulenin (Sigma-Aldrich, Mo.) were used as described below.
For the determination of Aβ peptide several methodologies also were used. SY5Y cells in culture were metabolically labeled with ^35S-[Met] as described (Figueiredo-Pereira et al. J Neurochem. 72:1417-22 (1999)), followed by immunoprecipitation, resolution of the immunoprecipitates on SDS-PAGE, autoradiography, and densitometric analysis of the autoradiogram. Neuro2a cells were stably transfected with hyg-sa134 (K. Sambamurti, S. Carolina Medical Center, SC) and Aβ40 (SEQ ID NO: 4) plus Aβ42 (SEQ ID NO: 5) plus Aβ43 (SEQ ID NO: 6) (Total Aβ) in the medium then was quantified by sandwich ELISAs developed with 4G8 and 6 ε10 monoclonal antibodies (Signet, Mass.) as described (Figueiredo-Pereira et al., J Neurochem. 72:1417-22 (1999)). Commercially available ELISA kits (KMI Diagnostics, MN) were used for the separate determination of Aβ40 (SEQ ID NO:4) and Aβ42/43 (SEQ ID NO:5/SEQ ID NO:6) in formic acid extracts of mice brains. Flotillin was detected using monoclonal anti-flotillin-1 antibodies (BD Biosciences, CA). Actin was detected using monoclonal anti-actin antibodies (Research Diagnostics, Inc, NJ).
Human (SYSY) or mouse neuroblastoma cell-lines (Neuro2a) commonly are used to study amyloid β metabolism in vitro. Neuro2a cells are stably transfected with hyg-sa134 (SEQ ID NO: 11), a plasmid driving the expression of a recombinant fusion protein containing the human C-terminal fragment of APP of about 134 amino acids, CAPP134 (SEQ ID NO: 10). Here, 5Y5Y or Neuro2a cultures were treated for 2 or 5 h with about 100 ng/ml or about 400 ng/ml leptin (FIG. 4a, 4b). Similarly, primary neurons from embryonic rat brain, infected with an adenovirus to direct the expression of CAPP134 (SEQ ID NO:10) also were treated according to the same regimen.

B1: Leptin: peptide hormone controlling adaptive metabolic mechanisms to energy availability; leptin (Harbor-UCLA) in vitro, recombinant murine leptin in mice (protein, UniProt P41160 22-167, looked up)
Leptin: VPIQKVQDDTKTLIKTIVTRINDISHTQSVSAKQRVTGLDFIPGLHPILSLSKMDQTLAVYQQVLTSLPSQNVLQIANDLENLRDLLHLLAFSKSCSLPQTSGLQKPESLDGVLEASLYSTEVVALSRLQGSLQDILQQLDVSPEC
In the case of B1, the “levels of Aβ detected in the media (percentage of corresponding controls)” value [1] is reported as 56±5%, the filipin labelling (astrocytes; about 400 ng/ml leptin) is reported as “diminished filipin labelling” and the “increase in filipin labelling by cholesterol” value (astrocytes; leptin about 400 ng/ml plus cholesterol about 10 μg/ml) is reported as “prohibited an increase”. For the same molecule, the “increase in filipin labelling by cholesterol” value (primary neurons; neurons, leptin about 400 ng/ml plus cholesterol about 10 μg/ml) was “prohibited an increase”, the filipin labelling (primary neurons; primary neurons, about 400 ng/ml leptin) was “diminished filipin labelling” and the “SY5Y Aβ (% control)” value (SY5Y cells) was 38 ± 7 % control.

Source: patent US8227408B2, “Leptin as an anti-amyloidogenic biologic and methods for delaying the onset and reducing Alzheimer's disease-like pathology” (Neurotez, Inc., priority 2005, dated 2012)
